Data from the nanobody polyreactivity screen of Harvey et al. (2022).

Assay: yeast display, Sf9 membrane polyspecificity reagent, FACS + sequencing; frameworks hold sequencing errors
Outline: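 In a synthetic yeast display library (Saccharomyces cerevisiae BJ5465), nanobody expression was induced with galactose for 36–48 hours. FACS gates were set low and high (top ~1%) using anti-HA fluorescence for expression and streptavidin fluorescence for binding of the Sf9 membrane reagent. Each polyreactivity label is drawn from the gate of origin.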

Sequence	polyreactivity (PSR sort gate)
QVQLVESGGGLVQAGGSLRLSCAASGIIFDYYAMGWYRQAPGKERELVASISWSGGGTYYADSVKGRFTISRDNAKNTVYLEMNSLKPEDTAVYYCAADGSTVNAPRWSDPYDYWGQGTQVTVSS	low polyreactivity
QVQLVESGGGLVQAGGSLRLSCAASGIIFEFYAMGWYRQAPGKEREFVAAISKNGGRTYYADSVKGRFTISRDNAKTSVYLQLNSLKPEDTAVYYCDARYRPQANKYYYWGQGTQVTVSS	high polyreactivity
QVQLVESGGGLVQAGGSLRLSCAASGIIFENYAMGWYRQAPGKERELVAAISAGGAITYYADSVKGRFTISRDNAKNTVYLQMNSLKPEDTAVYYCNAKSYRHLLYIPYKYNYWGQGTQVTVSS	high polyreactivity
QVQLVESGGGLVQAGGSLRLSCAASGIIFEPNAMGWYRQAPGKERELVAAIDSGGITYYADSVKGRFTISRDNAKNTVYLQMNSLKPEDTAVYYCAAEAVVVTKYRYWTYGLYDYWGQGTQVTVSS	high polyreactivity
QVQLVESGGGLVQAGGSLRLSCAASGIIFEPYAMGWYRQAPGKERELVASIRWSDGSTFYADSVKGRFTISRDNAKNTVYLQMNSLKPEDTAVYYCNAVYEHRRVGWVTIDYGYWGQGSQVTVSS	low polyreactivity
QVQLVESGGGLVQAGGSLRLSCAASGIIFESYSMGWYRQAPGKERELVAAISWDGGSTYYADSVKGRFTISRDNAKNTVYLQMNSLKPEDTAVYYCAAESYGIYDGYDYWGQGTQVTVSS	high polyreactivity
QVQLVESGGGLVQAGGSLRLSCAASGIIFEYYAMGWYRQAPGKEWELVAAITDDGVVTYYGDSVKGRFTISRDNAKNTVYLQMNSLKPEDTAVYYCAAESYWTATYTYDYWGQGTQVTVSS	high polyreactivity
QVQLVESGGGLVQAGGSLRLSCAASGIIFFLYAMGWYRQAPGKERELVAAISSGGSTYYADSVKGRFTISRDNAKNTVYLQMNSLKPEDTAVYYCAVVGYASRYEKYYYWGQGTQVTVSS	high polyreactivity
QVQLVESGGGLVQAGGSLRLSCAASGIIFFRYAMGWYRQAPGKEREWVAGISGSGGSTYYADSVKGRFTMSRDNAKNTVYLQMNSLKPEDTAVYYCAKRYYRPVPGGYYWGQGTQVTVSS	high polyreactivity
QVQLVESGGGLVQAGGSLRLSCAASGIIFGDKAMGWYRQAPGKERELVAAITIGGTSTYYADSVKGRFTISRDNAKNTVYLQMNRLKPEDTAVYYCAKTILYDCDYWGQGTQVTVSS	low polyreactivity
QVQLVESGGGLVQAGGSLRLSCAASGIIFGDNGMGWYRQAPGKERELVAVITSGDGTNYADSVKGRFTISRDNANNTFYLQMNSLKPEDTAVYYCAADFRIVVYGWGGSHMDYWGKGTQVTVSS	low polyreactivity
QVQLVESGGGLVQAGGSLRLSCAASGIIFGGYAMGWYRQAHGKERELVARITSGGSTNYADSVKGRFTISRDNAKNTVYLQMNSLKPEDTAVYYCNARGGWSWRFYYWGQGTQVTVSS	high polyreactivity
QVQLVESGGGLVQAGGSLRLSCAASGIIFGKNAMGWYRQAPGKERELVAAISRRGGGTYYADSVKGRFTISRDNAKNTVYLQMNSLKPEDTAVYYCAVKVGYVRLLYHYYYWGQGTQVTVSS	high polyreactivity
QVQLVESGGGLVQAGGSLRLSCAASGIIFGPYAMGWYIQAPGKERELVAAITDGGITYYADSVKGRFTISRDNAKNTVYLQMNSLKPEDTAVYYCAAESGYPVYTYVSSGDYWGQGTQVTVSS	low polyreactivity
QVQLVESGGGLVQAGGSLRLSCAASGIIFGRNTMGWYRPAPGKERELVAGISSNGGSTYYADSVKGRFTISRDNAKNTVYLQMNRLKPEDTAVYYCAAYYNIPDRRRVGYDYWGQGTQVTVSS	high polyreactivity
QVQLVESGGGLVQAGGSLRLSCAASGIIFGRYAMGWYRHAPGKERELVAAISTSGCSTYYADSVKGRFTISRDNAKTTVYLQMNSLKPEDTAVYYCAARHREAQRRYDYWGQGTQVTVSS	high polyreactivity
QVQLVESGGGLVQAGGSLRLSCAASGIIFGRYAMGWYRQAPGKERELVAAITRSGGRTYYADSVKGRFTISRDNAKNTVYLQMNSLKPEDTAVYYCAADASGHSYDYWGQGTQVTVSS	high polyreactivity
QVQLVESGGGLVQAGGSLRLSCAASGIIFGRYAMGWYRQAPGKERELVAVINWSGDSTYYADSVKGRFTISRDNAKNTVYLQMNSLKPEDTAVYYCAALNYKGRYRQYYWGQGTQVTVSS	high polyreactivity
QVQLVESGGGLVQAGGSLRLSCAASGIIFGRYAMGWYTPAPGKERELVATISYRGGRTYYADSVKGRFTISRDNAKNTVYLQMNSLKPEDTAVYYCAAPHFSYSGGTHDYWGQGTQVTVSS	high polyreactivity
QVQLVESGGGLVQAGGSLRLSCAASGIIFGRYTMGWYRQAPGKERELVAAITSSGITYYADSVKGRFTISRDNAKNTVYLQMHSLTPEDTAVYYCAADSPVSVTADDGYSGQGTQVTVSS	low polyreactivity
QVQLVESGGGLVQAGGSLRLSCAASGIIFGSNTMGWYRQAPGKERELVAAITSSDGSTHYADSVKGRFTISRDNAKNTVYLQMNTLKPEDTAVYYCAARKVTYGHSYGYDYWGQGTQVTVSS	low polyreactivity
QVQLVESGGGLVQAGGSLRLSCAASGIIFGSYAMGWYRQAPGKERELVAAISTSGGSTYYADSVKGRFTISRDNAKNTVYLQMNSLKPEDTAVYYCNKAGVYRDSSRYNYWGQGTQVTVSS	high polyreactivity

Sequence	polyreactivity (PSR sort gate)
QVQLVESGGGLVQAGGSLRLSCAASGIIFGTNAMGWYRQAPGKERELVAGITSSGDSTYYADSVKGRFTISRDNAKNTVYLQMNSLKPEDTAVYYCARDIRTREFDSWGQGTQVTVSS	low polyreactivity
QVQLVESGGGLVQAGGSLRLSCAASGIIFGTYAMGWYRQAPGKERELVAAIRRSGTGTYYADSVKGRFTISRDNAKNTVYLQMNSLKPEDTAVDYCNVVRSYAYDSWGQGTQVTVSS	high polyreactivity
QVQLVESGGGLVQAGGSLRLSCAASGIIFGWYAMGWYRQAPGKEREFVATISWSGASTYYADSVKGRFTISRDNAKNTVYLQMNSLKPEDTAVYYCAAGGRRQAYGRRDYWGQGTQVTVSS	high polyreactivity
QVQLVESGGGLVQAGGSLRLSCAASGIIFGYNAMGCYRQAPGKERELVASIDVSGGITYYADSVKGRFTISRDNAKNTVYLQMNSLKPEDTAVYYCAAYRYGSRYGYEYWGQGTQVTVSS	high polyreactivity
QVQLVESGGGLVQAGGSLRLSCAASGIIFGYYAMGWSRKAPGKERELVAAISRGGNTNYADSVKGRFTISRDNAKNTVYLQMNSLKPEDTAVYYCAADFWSRIIYFYAVDVDYWGQGTQVTVSS	low polyreactivity
QVQLVESGGGLVQAGGSLRLSCAASGIIFGYYAMGWSRQEPGKERELVAAINQDGSSTYYADSVKGRFTISRDNAKNTVYLQMNSLKPEVTAVYYCNARGVPRQDARMGYWGEGTQVTVSS	low polyreactivity
QVQLVESGGGLVQAGGSLRLSCAASGIIFGYYAMGWYRQAPGKEREFVAAINYSGVSTYYADSVKGRFTISRDNAKNTVYLQMNSLKPEDTAVYSCAADFRIVVYGWGGSHMDYWGQGTQVTVSS	low polyreactivity
QVQLVESGGGLVQAGGSLRLSCAASGIIFGYYTMGWYRQAPGKERELVARITTGSSTNYADSVKGRFTISRDNAKNTVYLQMNSLKPEDTAVYYCAAVPIAADKANGYDYWGQGTQVTVSS	low polyreactivity
QVQLVESGGGLVQAGGSLRLSCAASGIIFHFNDMGWYRQAPGKERELVAAITSGGSTNYADSVKGRFTISRDNAKNTVYLQMNSLKPEDTAVYYCAARRGLRLFAYRHGYWGQGTQVTVSS	low polyreactivity
QVQLVESGGGLVQAGGSLRLSCAASGIIFHFNDMGWYRQAPRKERELVAAIDSTGSTNYADSVKGRFTISRDNAKNTVYLQMNSLKPEDTAVYYCAVLNHRVDSVLTRYYYWGQGTQVTVSS	low polyreactivity
QVQLVESGGGLVQAGGSLRLSCAASGIIFHPYAMGWYRQAPGKERELVAVITWPGDSTYYADSVKGRFTISRDNAKNTVYLQMNSLKPEDTAVYYCNVDAWGTSGELPYDYWGQGSQVTVSS	low polyreactivity
QVQLVESGGGLVQAGGSLRLSCAASGIIFHRNDMGWYRQAPGKERELVANIRDGGITYADSVKGRFTISRDKAKNTVYLQMNSLKPEDTAVYYCARDDTSPGYGDQSSNAAYYYWGQGTQVTVSS	low polyreactivity
QVQLVESGGGLVQAGGSLRLSCAASGIIFHYYAMGWYRQAPVKERELVAVITSGGSTNYADSVKGRFTISRDNAKNTVYLQMNSLKPEDTAVYYCAADPIRDSWWQYFQDGREYDYWGQGTQVTVSS	low polyreactivity
QVQLVESGGGLVQAGGSLRLSCAASGIIFIGNAMGWYRQAPGKERELVAAISRRGGGTYYADSVKGRFTISRDNAKNTVYLQMNSLKPEDTAVYYCNAEITVNDDDYWGQGTQVTVSS	high polyreactivity
QVQLVESGGGLVQAGGSLRLSCAASGIIFIGNAMGWYRQAPGKERELVAAISWNGVRTYYADSVKGRFTISRDNAKNTVYLQMNSLKPEYTAVYYCAAVTRRGIKLDYWGQGTQVTVSS	high polyreactivity
QVQLVESGGGLVQAGGSLRLSCAASGIIFIHNAMGGYRQAPGTERELVAAINWSGGRTSYADSVKGRFTISRDNAKNTVYLQMTRLKPEDTAVYYCAADGRRYSGEYYYWGQGTQVTVSS	high polyreactivity
QVQLVESGGGLVQAGGSLRLSCAASGIIFINYVKGWYRQAPGKESELVAAITGSGSSTYYADSVKGRFTISRDNAKNTVYLQMNSLKPEDTAVYYCAADNPRVRFLYYYWGQGTQVTVSS	high polyreactivity
QVQLVESGGGLVQAGGSLRLSCAASGIIFIRYAMGWYRQAPGKERELVAAISWRGGSTYYADSVKGRFTISRDNAKNTVYFQMNSLKPEDTAVYYCAAGYFSYRRYDYWGEGTQVTVSS	high polyreactivity
QVQLVESGGGLVQAGGSLRLSCAASGIIFIWNTMGWYRQAPGKEREFVAAISRSGSGTSYADSVKGRFTISRDNAKNTVYLQMNSLKPEDTAVYYWDARLEWPYDMYYWGQGTQVTVSS	low polyreactivity
QVQLVESGGGLVQAGGSLRLSCAASGIIFIYYVMGWYRQAPGKERELVAAISRSGGSTYYADSVKGRFTISRDNAKNTVNLQMNSLKPEDTAVYYCAARRITSTDEYYWGQGTQVTVSS	high polyreactivity
QVQLVESGGGLVQAGGSLRLSCAASGIIFKLYAMGWYRQAPGKEREFVATITKTCGRTYYADSVKGRFTISRDNAKNTVYLQMNSLKPEDTAVYYCAARRVNGKMYYWGQGTQVTVSS	high polyreactivity
